Results reported in the supplement of paper PMC10126150.
± gives the standard deviation of the averaged measurements.

Tested on: ATP
Assay: switch fluorescence ratio, 500 uM ATP over buffer (Cy3 cluster intensity, sum of 5 cycles each) (fold (ratio)); higher = stronger signal-on switching upon ATP binding; sequences stand for … in TCGTCGGCAGCGTCAGATGTGTATAAGAGACAGTTTTTTTTTTTTTTTTTTTTTTTTT…TC
Conditions: aptamer strand: ATP DNA aptamer (quencher-CACCTGGGGGAGTATTGCGGAGGAAGG + anchor), 100 nM annealed; ATP concentration: 500 uM
How it was run: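 For every switch-domain sequence, the fluorescence ratio is the mean of per-cluster values, each being summed target-cycle Cy3 intensity over summed buffer-cycle Cy3 intensity. Clusters outside 100-1000 RFU were excluded. On a modified Illumina MiSeq flow-cell, the Cy3-labelled switching-strand clusters were annealed to 100 nM quencher-labelled ATP aptamer, imaged in selection buffer and then after 15 min with 500 uM ATP at 22 °C. Five such cycles were run, with NaOH stripping and re-annealing between them.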
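Also: ATP exposure 15 min at 22 °C before imaging.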

Row | Sequence | switch fluorescence ratio
1 | AGATTGAGCG | 1 ± 0.019
2 | TGTAGTACCG | 1.021 ± 0.0056
3 | CAAGTATATT | 0.968 ± 0.032
4 | TCCAGAGGGA | 1.28 ± 0.23
5 | TTGAGTTTTT | 0.987 ± 0.024
6 | GGGGAGTTAT | 1.01 ± 0.0024
7 | AGGGAATAGA | 0.989 ± 0.0094
8 | TTTGTTGTGC | 1.01 ± 0.016
9 | TTTAGGCTGG | 0.979 ± 0.022
10 | TGAAATTGTT | 1 ± 0.045
11 | GGCTGACGTC | 1 ± 0.038
12 | TGTATTGGTT | 0.99 ± 0.034
13 | ACATTGATGG | 1.028 ± 0.00017
14 | TTAAGGCCCG | 1.01 ± 0.012
15 | CTCGGAACCT | 1.84 ± 0.22
16 | GCTTGATTGG | 1.04 ± 0.019
17 | TGAGGTTTGT | 0.98 ± 0.028
18 | TCGTCCGAAG | 1.45 ± 0.04
19 | TTGAGGCAGT | 1.54 ± 0.55
20 | CTTGGATGGG | 0.9858 ± 0.0089
21 | CGGGAGGTAT | 1 ± 0.012
22 | TTCGGGTTTC | 1.04 ± 0.058
23 | ATGGGCAGGG | 0.9931 ± 0.0056

Row | Sequence | switch fluorescence ratio
24 | TAATGTTGGT | 1.025 ± 0.0014
25 | TCTAATCGGA | 0.975 ± 0.04
26 | GTTTGGGATT | 1 ± 0.024
27 | GCTTGGCTGT | 0.999 ± 0.017
28 | CAAATGTCAG | 0.99 ± 0.028
29 | TGCGCTTATA | 1.09 ± 0.015
30 | GGGTGAGCTG | 0.98 ± 0.04
31 | ATATTACTAG | 0.989 ± 0.035
32 | AAAAATGAGA | 0.998 ± 0.043
33 | CGTAGTGCCC | 1.07 ± 0.048
34 | CGTCGTAGGG | 0.985 ± 0.03
35 | TGCTTGTGGG | 1.026 ± 0.0015
36 | GCTATTGTTC | 0.967 ± 0.039
37 | GGTCTAGTCC | 1.018 ± 0.0034
38 | TAGTGTGGG | 0.99 ± 0.024
39 | GAAGGGGATT | 1.015 ± 0.01
40 | CCGTTACATG | 1.05 ± 0.017
41 | AATCGGGTAG | 1 ± 0.014
42 | AGTCGAGCTA | 0.986 ± 0.021
43 | GCTGAGGGGA | 1.03 ± 0.049
44 | GGTGTAGGGA | 0.992 ± 0.013
45 | GTTGTTGCAA | 1.13 ± 0.21
46 | TAGCCTAATG | 1.0049 ± 0.00065

Row | Sequence | switch fluorescence ratio
47 | TGTGTACCG | 1.01 ± 0.065
48 | AATGGAGTTT | 1 ± 0.023
49 | ACCTGGCCTG | 0.999 ± 0.021
50 | GGGGTATCTT | 1.04 ± 0.017
51 | AGTATAGACC | 0.983 ± 0.01
52 | TGAGGGGGGA | 1 ± 0.036
53 | CAGTAGCGGT | 1.97 ± 0.35
54 | TTTTTTGGTG | 1.02 ± 0.036
55 | GCCTGAACTT | 1.03 ± 0.006
56 | GAGTGCTGGG | 1.01 ± 0.011
57 | CGTGACATTG | 1.01 ± 0.013
58 | CTTTTAGGGG | 1.01 ± 0.012
59 | GGTGTTTTCG | 0.998 ± 0.03
60 | GGCCCCTTAG | 1.02 ± 0.03
61 | AGGAGTAGTC | 0.996 ± 0.021
62 | TGGCTTTGCT | 0.962 ± 0.015
63 | ATCAGTGTGG | 0.967 ± 0.038
64 | TTTAGTTTTT | 0.996 ± 0.042
65 | AAGGGGTCTT | 0.981 ± 0.027
66 | AGTATAGGGG | 1.006 ± 0.007
67 | TGTGATGGAG | 0.979 ± 0.033
68 | TCCGAAATCA | 1.6 ± 0.48
69 | GTAGTTTTGA | 0.981 ± 0.018

Row | Sequence | switch fluorescence ratio
70 | ATAGGACAAC | 1.038 ± 0.0081
71 | GCTGTAGACT | 0.992 ± 0.038
72 | CCGGGGCACT | 1.34 ± 0.26
73 | TTTTAGCTCT | 0.963 ± 0.015
74 | CTAAGGGGTG | 1.022 ± 0.0057
75 | ATCAGGCGGA | 1 ± 0.045
76 | AAAAGTAACC | 0.993 ± 0.026
77 | GTTTCCGATT | 0.991 ± 0.019
78 | ACGGACGTTC | 1.15 ± 0.015
79 | GGGATATAAT | 1.02 ± 0.022
80 | CAAGACTTCG | 1.01 ± 0.052
81 | AGTGTGCTGG | 1.01 ± 0.043
82 | TTTGGCCAAA | 1.05 ± 0.046
83 | GGGACTTAGC | 1.02 ± 0.022
84 | AGGCGGGTGG | 1.03 ± 0.019
85 | TTAGTGGGGT | 1.01 ± 0.028
86 | GAAGTAGAGG | 1 ± 0.032
87 | TCCTTGTTTT | 1 ± 0.028
88 | AAGAGGGGAG | 1.01 ± 0.013
89 | GAGATGTGCG | 0.9319 ± 0.008
90 | TGGGTTACGA | 1.04 ± 0.035
91 | TCTGTTGGGC | 0.995 ± 0.025
92 | TTATTACGGA | 1.03 ± 0.013

Row | Sequence | switch fluorescence ratio
93 | TTTTTTTGGG | 1 ± 0.036
94 | ACTCGGGA | 1.13 ± 0.16
95 | CGGGCGAGGA | 0.989 ± 0.029
96 | AGTTTCAGGT | 1.005 ± 0.006
97 | AAGGAGTTTT | 0.973 ± 0.034
98 | CAGGTGATAC | 2.42 ± 0.29
99 | TTGTCTAGGG | 0.98 ± 0.033
100 | ATCATATGGA | 0.985 ± 0.037
101 | CTGAGGGGCT | 0.982 ± 0.02
102 | TTCCTTCTTT | 1.08 ± 0.061
103 | CTTGGATGTC | 0.985 ± 0.03
104 | TTTAAGAGGG | 0.978 ± 0.038
105 | CAGATTCTGT | 0.973 ± 0.023
106 | TTTACTTTTC | 1.49 ± 0.75
107 | TTGGGTGAAC | 1.002 ± 0.0088
108 | TCGGCCATCG | 1 ± 0.016
109 | TACGGGGGTT | 0.994 ± 0.011
110 | GTTTATTTCG | 0.987 ± 0.059
111 | TTTTAGGCAC | 1.03 ± 0.018
112 | TTTTGTTTAC | 1.01 ± 0.028
113 | AAAGGTTAGG | 0.958 ± 0.029
114 | GAGGCAAAG | 2.87 ± 2.4
115 | ATCCTAGGGC | 1.007 ± 0.0095

Row | Sequence | switch fluorescence ratio
116 | TTATTTCGCG | 0.986 ± 0.041
117 | ATATTAAAAG | 0.9959 ± 0.0043
118 | AGTATTTTGG | 1.01 ± 0.018
119 | TATTGAGTAA | 1.02 ± 0.02
120 | GGCGTAGGAG | 0.997 ± 0.021
121 | GAAATATGGC | 1.15 ± 0.062
122 | TGATGGGCGC | 1.026 ± 0.0036
123 | GCGGGTCGGG | 0.969 ± 0.054
124 | CGATGGGATA | 1.03 ± 0.02
125 | GGGCTGAGGG | 0.988 ± 0.029
126 | TTTTGGCTAA | 1.01 ± 0.022
127 | TCGAGATGG | 0.97289 ± 7.7e-05
128 | CGGGCTCAGC | 1.008 ± 0.0094
129 | AAGGCGGGGC | 0.981 ± 0.051
130 | CGGATTAGGT | 0.993 ± 0.028
131 | AATTATGGTT | 1.03 ± 0.012
132 | GAGGCTGTTT | 1.01 ± 0.035
133 | GAATTAGCTT | 0.983 ± 0.023
134 | GTCAAAAAGT | 0.985 ± 0.028
135 | GTTATTATTC | 0.9922 ± 0.0057
136 | CATGTATGTT | 1.01 ± 0.012
137 | GACTAAGGGG | 1 ± 0.02
138 | CATAATTTTA | 1.007 ± 0.01

Row | Sequence | switch fluorescence ratio
139 | GGGGACGATG | 0.996 ± 0.019
140 | TACGAGGGGG | 1 ± 0.021
141 | TCCTTTGGTT | 0.9865 ± 0.0034
142 | GATATGTGGG | 0.986 ± 0.031
143 | TGAGTATATA | 1.02 ± 0.014
144 | CACGTTGTAT | 1.32 ± 0.42
145 | ATTGCGCTTC | 1.063 ± 0.0095
146 | GTTCGCGGTG | 0.998 ± 0.017
147 | AGAGATGGTT | 0.979 ± 0.012
148 | TTCATTTTGC | 1.02 ± 0.015
149 | CCTTCTGCCG | 1.203 ± 0.0042
150 | TGTAGGGGTT | 1 ± 0.044
151 | GGAGCTGGGA | 1.0097 ± 0.00033
152 | TTGAGGGGGT | 1.05 ± 0.16
153 | AACTGAGACT | 1.02 ± 0.032
154 | GAAGGTTAGG | 0.9866 ± 0.0081
155 | TGTTTAAGGG | 1 ± 0.021
156 | AGGGGACTTC | 1.04 ± 0.015
157 | TTGTAAATCG | 0.975 ± 0.02
